Data taken from article PMC10585736.

B1: Pol30p (PCNA), wild type, two-hybrid prey (pBL240-PCNA-Gal4AD) [S. cerevisiae] / Rrm3p, two-hybrid bait [S. cerevisiae] (parent)
chain 1: MLEAKFEEASLFKRIIDGFKDCVQLVNFQCKEDGIIAQAVDDSRVLLVSLEIGVEAFQEYRCDHPVTLGMDLTSLSKILRCGNNTDTLTLIADNTPDSIILLFEDTKKDRIAEYSLKLMDIDADFLKIEELQYDSTLSLPSSEFSKIVRDLSQLSDSINIMITKETIKFVADGDIGSGSVIIKPFVDMEHPETSIKLEMDQPVDLTFGAKYLLDIIKGSSLSDRVGIRLSSEAPALFQFDLKSGFLQFFLAPKFNDEE
chain 2: MFRSHASGNKKQWSKRSSNGSTPAASASGSHAYRQQTLSSFFMGCGKKSAAASKNSTTIIDLESGDEGNRNITAPPRPRLIRNNSSSLFSQSQGSFGDDDPDAEFKKLVDVPRLNSYKKSSRSLSMTSSLHKTASASTTQKTYHFDEDETLREVTSVKSNSRQLSFTSTINIEDSSMKLSTDSERPAKRSKPSMEFQGLKLTVPKKIKPLLRKTVSNMDSMNHRSASSPVVLTMEQERVVNLIVKKRTNVFYTGSAGTGKSVILQTIIRQLSSLYGKESIAITASTGLAAVTIGGSTLHKWSGIGIGNKTIDQLVKKIQSQKDLLAAWRYTKVLIIDEISMVDGNLLDKLEQIARRIRKNDDPFGGIQLVLTGDFFQLPPVAKKDEHNVVKFCFESEMWKRCIQKTILLTKVFRQQDNKLIDILNAIRYGELTVDIAKTIRNLNRDIDYADGIAPTELYATRREVELSNVKKLQSLPGDLYEFKAVDNAPERYQAILDSSLMVEKVVALKEDAQVMMLKNKPDVELVNGSLGKVLFFVTESLVVKMKEIYKIVDDEVVMDMRLVSRVIGNPLLKESKEFRQDLNARPLARLERLKILINYAVKISPHKEKFPYVRWTVGKNKYIHELMVPERFPIDIPRENVGLERTQIPLMLCWALSIHKAQGQTIQRLKVDLRRIFEAGQVYVALSRAVTMDTLQVLNFDPGKIRTNERVKDFYKRLETLK

Variants of: B1
Experiment: yeast two-hybrid (β-galactosidase)
Conditions: with Rrm3p, prey Pol30-79p, parent: 1.3, read off a plot

| response (U/mg of protein) | Variant |
| --- | --- |
| 1.3 | chain 1 L126A I128A |

Same assay, conditions: with Rrm3p, prey Pol30-6p, parent: 1.3, read off a plot

| response (U/mg of protein) | Variant |
| --- | --- |
| 0.58 | chain 1 MLEAKFEEASLFKRIIDGFKDCVQLVNFQCKEDGIIAQAVAASRVLLVSLEIGVEAFQEYRCDHPVTLGMDLTSLSKILRCGNNTDTLTLIADNTPDSIILLFEDTKKDRIAEYSLKLMDIDADFLKIEELQYDSTLSLPSSEFSKIVRDLSQLSDSINIMITKETIKFVADGDIGSGSVIIKPFVDMEHPETSIKLEMDQPVDLTFGAKYLLDIIKGSSLSDRVGIRLSSEAPALFQFDLKSGFLQFFLAPKFNDEE [chain 1 D41A D42A] |

Same assay, conditions: with Rrm3p, prey Pol30-8p, parent: 1.3, read off a plot

| response (U/mg of protein) | Variant |
| --- | --- |
| 0.75 | chain 1 MLEAKFEEASLFKRIIDGFKDCVQLVNFQCKEDGIIAQAVDDSRVLLVSLEIGVEAFQEYACAHPVTLGMDLTSLSKILRCGNNTDTLTLIADNTPDSIILLFEDTKKDRIAEYSLKLMDIDADFLKIEELQYDSTLSLPSSEFSKIVRDLSQLSDSINIMITKETIKFVADGDIGSGSVIIKPFVDMEHPETSIKLEMDQPVDLTFGAKYLLDIIKGSSLSDRVGIRLSSEAPALFQFDLKSGFLQFFLAPKFNDEE [chain 1 R61A D63A] |
